{"source": "patent US20200199533A1", "about": "(KING ABDULLAH UNIVERSITY OF SCIENCE AND TECHNOLOGY, published 2020)", "binders": {"B1": {"name": "recombinant E-selectin human immunoglobulin chimeric protein (Fc fusion)", "chain": "WSYNTSTEAMTYDEASAYCQQRYTHLVAIQNKEEIEYLNSILSYSPSYYWIGIRKVNNVWVWVGTQKPLTEEAKNWAPGEPNNRQKDEDCVEIYIKREKDVGMWNDERCSKKKLALCYTAACTNTSCSGHGECVETINNYTCKCDPGFSGLKCEQIVNCTALESPEHGSLVCSHPLGNFSYNSSCSISCDRGYLPSSMETMQCMSSGEWSAPIPACNVVECDAVTNPANGFVECFQNPGSFPWNTTCTFDCEEGFELMGAQSLQCTSSGNWDNEKPTCKAVTCRAVRQPQNGSVRCSHSPAGEFTFKSSCNFTCEEGFMLQGPAQVECTTQGQWTQQIPVCEAFQCTALSNPERGYMNCLPSASGSFRYGSSCEFSCEQGFVLKGSKRLQCGPTGEWDNEKPTCEAVRCDAVHQPPKGLVRCAHSPIGEFTYKSSCAFSCEEGFELHGSTQLECTSQGQWTEEVPSCQVVKCSSLAVPGKINMSCSGEPVFGTVCKFACPEGWTLNGSAARTCGATGHWSGLLPTCEAPTESNIP"}}, "key": {"[1]": {"target": "CD44 (HCELL), native glycoprotein from human HSPCs (KG1a, CD34^pos fraction) (human) (UniProt P16070)", "sequence (P16070 21-742)": "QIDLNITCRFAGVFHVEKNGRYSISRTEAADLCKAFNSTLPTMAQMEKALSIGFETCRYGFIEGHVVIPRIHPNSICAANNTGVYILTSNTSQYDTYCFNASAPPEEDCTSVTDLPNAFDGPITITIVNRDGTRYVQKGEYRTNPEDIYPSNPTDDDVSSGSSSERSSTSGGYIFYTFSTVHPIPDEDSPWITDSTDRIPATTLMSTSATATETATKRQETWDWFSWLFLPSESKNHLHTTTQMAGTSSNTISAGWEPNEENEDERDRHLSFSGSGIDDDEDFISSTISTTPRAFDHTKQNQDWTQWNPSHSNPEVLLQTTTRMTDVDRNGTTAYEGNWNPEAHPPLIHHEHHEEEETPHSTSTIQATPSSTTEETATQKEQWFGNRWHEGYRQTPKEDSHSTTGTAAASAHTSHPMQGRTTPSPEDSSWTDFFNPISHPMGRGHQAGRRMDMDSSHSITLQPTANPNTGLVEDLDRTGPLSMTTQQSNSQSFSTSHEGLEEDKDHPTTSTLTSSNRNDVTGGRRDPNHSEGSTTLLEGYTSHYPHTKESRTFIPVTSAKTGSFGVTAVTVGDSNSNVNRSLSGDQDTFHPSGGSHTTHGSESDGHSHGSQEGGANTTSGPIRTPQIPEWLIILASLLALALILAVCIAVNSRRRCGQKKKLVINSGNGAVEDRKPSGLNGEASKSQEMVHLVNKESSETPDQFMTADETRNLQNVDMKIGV", "assay": "SPR; CD44 captured from KG1a lysate on Hermes-3-mAb, E-Ig injected (3.9-2000 nM), 150 mM NaCl; steady-state model; 1st experiment"}, "[2]": {"target": "T1, CD34, native glycoprotein from human HSPCs (KG1a, CD34^pos-BM, CD34^pos-UCB, CD34^pos-AML) (human, UniProt P28906 32-385, native glycosylation (about 120-130 kDa form); sialylated O-glycans and tyrosine sulfation are shown to matter for selectin binding)", "T1 construct": "mature; also called E-selL CD34", "T1 sequence (looked up)": "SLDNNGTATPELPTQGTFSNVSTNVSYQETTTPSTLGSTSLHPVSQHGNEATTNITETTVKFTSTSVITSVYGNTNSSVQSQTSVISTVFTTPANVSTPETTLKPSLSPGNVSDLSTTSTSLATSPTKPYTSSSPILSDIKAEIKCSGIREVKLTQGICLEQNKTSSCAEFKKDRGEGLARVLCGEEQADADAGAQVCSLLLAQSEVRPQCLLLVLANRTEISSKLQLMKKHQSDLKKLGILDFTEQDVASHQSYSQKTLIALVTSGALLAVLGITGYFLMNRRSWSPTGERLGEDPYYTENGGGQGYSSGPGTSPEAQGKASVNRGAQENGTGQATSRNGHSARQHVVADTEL", "assay": "SPR; CD34 captured from KG1a lysate on 563-mAb, E-Ig injected, 150 mM NaCl; apparent rate constant; 1st experiment"}, "[3]": {"target": "T2, PSGL-1, native glycoprotein from human HSPCs (KG1a, CD34^pos-BM) (human, UniProt Q14242 42-412, native glycosylation and tyrosine sulfation)", "T2 construct": "mature; also called P-selectin glycoprotein ligand-1", "T2 sequence (looked up)": "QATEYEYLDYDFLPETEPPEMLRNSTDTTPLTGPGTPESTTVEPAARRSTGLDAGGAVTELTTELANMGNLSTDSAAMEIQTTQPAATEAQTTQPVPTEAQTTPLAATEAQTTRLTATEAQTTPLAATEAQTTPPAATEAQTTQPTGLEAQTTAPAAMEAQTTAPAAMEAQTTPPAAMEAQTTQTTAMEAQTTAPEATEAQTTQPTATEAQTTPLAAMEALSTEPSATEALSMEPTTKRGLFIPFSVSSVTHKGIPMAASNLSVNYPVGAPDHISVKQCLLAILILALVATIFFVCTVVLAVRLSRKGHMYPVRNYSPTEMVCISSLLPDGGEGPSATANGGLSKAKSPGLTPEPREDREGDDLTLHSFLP", "assay": "SPR; PSGL-1 captured from KG1a lysate on KPL-1-mAb, E-Ig injected (3.9-2000 nM), 150 mM NaCl; steady-state model; mean ± SEM"}, "[4]": {"target": "T1, CD34, native glycoprotein from human …", "assay": "SPR; CD34 captured from CD34^pos-BM lysate on 563 mAb; apparent rate constant, estimate"}, "[5]": {"target": "T1, CD34, native glycoprotein from human …", "assay": "SPR; CD34 captured from CD34^pos-BM lysate on 563 mAb, E-Ig injected, 50 mM NaCl; steady-state model"}, "[6]": {"target": "T2, PSGL-1, native glycoprotein from human …", "assay": "SPR; PSGL-1 captured from KG1a lysate on KPL-1-mAb, E-Ig injected, 150 mM NaCl; apparent rate constant; 3rd experiment"}, "[7]": {"target": "T2, PSGL-1, native glycoprotein from human …", "assay": "SPR; PSGL-1 captured from KG1a lysate on KPL-1-mAb, E-Ig injected (3.9-2000 nM), 150 mM NaCl; steady-state model; 2nd experiment"}, "[8]": {"target": "T3, CD43, native glycoprotein from KG1a cells (human, UniProt P16150 20-400, native glycosylation)", "T3 construct": "mature", "T3 sequence (looked up)": "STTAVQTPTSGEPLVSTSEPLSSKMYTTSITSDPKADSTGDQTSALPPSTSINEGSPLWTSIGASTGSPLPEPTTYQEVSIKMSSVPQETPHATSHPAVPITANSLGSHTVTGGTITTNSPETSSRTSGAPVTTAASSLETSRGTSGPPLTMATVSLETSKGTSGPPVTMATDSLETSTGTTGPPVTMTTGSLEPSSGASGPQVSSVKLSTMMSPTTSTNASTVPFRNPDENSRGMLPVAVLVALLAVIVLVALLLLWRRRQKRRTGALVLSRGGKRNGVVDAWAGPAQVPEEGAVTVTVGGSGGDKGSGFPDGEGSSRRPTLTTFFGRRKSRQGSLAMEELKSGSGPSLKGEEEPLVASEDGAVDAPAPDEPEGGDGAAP", "assay": "SPR; CD43 captured from KG1a lysate on polyclonal CD43 Ab, E-Ig injected (3.9-2000 nM), 150 mM NaCl; steady-state model; 1st experiment"}, "[9]": {"target": "CD44 (HCELL), native glycoprotein from human HSPCs (KG1a, CD34^pos fraction) (human) (UniProt P16070)", "assay": "SPR, decay after injection of E-Ig (177 nM, 1 mM CaCl2) over CD44 captured on Hermes-3; apparent constant that includes loss of CD44 from the mAb, s^-1 as in paragraph 58"}, "[10]": {"target": "T1, CD34, native glycoprotein from human …", "assay": "SPR; CD34 captured from KG1a lysate on 563-mAb, E-Ig injected (3.9-2000 nM), 150 mM NaCl; steady-state model; 1st experiment"}}}
{"binder": "B1", "values": [{"measurement": "Kd", "setting": "[1]", "result": 234, "unit": "nM"}, {"measurement": "koff", "setting": "[2]", "result": 0.00029, "unit": "s⁻¹"}, {"measurement": "kon", "setting": "[2]", "result": 2030, "unit": "M⁻¹ s⁻¹"}, {"measurement": "Kd", "setting": "[3]", "result": 259, "unit": "nM"}, {"measurement": "kon", "setting": "[4]", "result": "~728", "unit": "M⁻¹ s⁻¹"}, {"measurement": "Kd", "setting": "[5]", "result": 261, "unit": "nM"}, {"measurement": "koff", "setting": "[6]", "result": 0.000262, "unit": "s⁻¹"}, {"measurement": "kon", "setting": "[6]", "result": 1140, "unit": "M⁻¹ s⁻¹"}, {"measurement": "Kd", "setting": "[7]", "result": 207, "unit": "nM"}, {"measurement": "Kd", "setting": "[8]", "result": 509, "unit": "nM"}, {"measurement": "koff-apparent", "setting": "[9]", "result": 0.00019, "unit": "s⁻¹"}, {"measurement": "Kd", "setting": "[10]", "result": 145, "unit": "nM"}]}
